Values joined by “and” are separate entries in the source; they are usually repeats but may differ in a detail not shown here. Equal values may be shown once.
T1: Chimeric chicken Her3-human domain 2 (AA207-328 human) (chicken/human chimera)
T1 construct: Transmembrane and extracellular regions, on HEK293 cells
T1 chain: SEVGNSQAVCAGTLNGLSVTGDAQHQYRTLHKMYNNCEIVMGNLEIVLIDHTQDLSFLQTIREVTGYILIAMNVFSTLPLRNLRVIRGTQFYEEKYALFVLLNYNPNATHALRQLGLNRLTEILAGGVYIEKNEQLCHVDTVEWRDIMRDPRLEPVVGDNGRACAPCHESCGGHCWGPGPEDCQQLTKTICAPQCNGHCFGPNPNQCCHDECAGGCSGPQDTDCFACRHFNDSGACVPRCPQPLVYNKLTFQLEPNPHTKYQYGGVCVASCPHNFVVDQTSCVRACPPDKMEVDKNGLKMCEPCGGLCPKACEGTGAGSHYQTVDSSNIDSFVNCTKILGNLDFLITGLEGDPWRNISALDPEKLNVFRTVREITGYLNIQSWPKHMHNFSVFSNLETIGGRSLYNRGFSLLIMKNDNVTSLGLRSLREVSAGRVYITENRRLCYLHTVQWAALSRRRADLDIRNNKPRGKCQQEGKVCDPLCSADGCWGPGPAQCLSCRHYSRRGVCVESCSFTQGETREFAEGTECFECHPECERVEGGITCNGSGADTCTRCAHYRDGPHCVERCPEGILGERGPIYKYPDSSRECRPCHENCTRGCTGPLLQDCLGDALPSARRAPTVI

T2: Chimeric chicken Her3-human domain 1 (AA1-206 human, AA207-642 chicken) (chicken/human chimera)
T2 construct: Transmembrane and extracellular regions, on HEK293 cells
T2 chain: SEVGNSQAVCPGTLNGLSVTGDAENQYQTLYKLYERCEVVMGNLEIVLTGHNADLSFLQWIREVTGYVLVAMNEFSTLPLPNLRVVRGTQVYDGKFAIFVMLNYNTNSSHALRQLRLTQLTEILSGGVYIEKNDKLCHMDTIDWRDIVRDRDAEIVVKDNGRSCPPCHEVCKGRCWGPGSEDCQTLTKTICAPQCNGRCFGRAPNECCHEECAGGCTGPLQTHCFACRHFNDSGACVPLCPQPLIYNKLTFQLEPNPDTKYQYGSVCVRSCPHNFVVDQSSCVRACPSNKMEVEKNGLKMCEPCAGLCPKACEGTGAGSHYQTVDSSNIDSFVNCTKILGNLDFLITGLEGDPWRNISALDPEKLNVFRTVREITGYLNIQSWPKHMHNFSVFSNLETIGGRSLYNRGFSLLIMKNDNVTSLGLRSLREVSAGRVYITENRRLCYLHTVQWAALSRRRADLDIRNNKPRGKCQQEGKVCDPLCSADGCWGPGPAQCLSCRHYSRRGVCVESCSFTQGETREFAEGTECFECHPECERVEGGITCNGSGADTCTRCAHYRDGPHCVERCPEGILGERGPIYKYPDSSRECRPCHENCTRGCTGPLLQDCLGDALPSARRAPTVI


Assays:
hHER3 full length [1] = biological target: T3, hHER3 full length (human, UniProt P21860 20-1342); assay: cell-based or functional assay
[2] = biological target: T4, human HER3-Fc (R&D Systems, 348-RB) (human, UniProt P21860 20-643); assay: 18G11 competition alphascreen
T4 construct: Bought; also called hHER3-Fc; Fc-HER3; Fc part of the bought chimera not given, not described

[3] = biological target: T1, Chimeric chicken Her3-human domain 2 …; assay: FACS, HEK293 with chimeric HER3
[4] = biological target: T4, human HER3-Fc (R&D Systems, 348-RB); assay: alphascreen, competitor biotinylated 18G11
[5] = biological target: T5, hHER3 ECD (human HER3 extracellular domain) (human, UniProt P21860 20-643); assay: off rate screening on recombinant HER3-ECD
T5 construct: also called recombinant HER3-ECD

[6] = biological target: T5, hHER3 ECD (human HER3 extracellular …); assay: SPR off rate on HER3-ECD, periplasmic extract
[7] = biological target: T5, hHER3 ECD (human HER3 extracellular …); assay: SPR off rate
hHER3 full length [8] = biological target: T3, hHER3 full length; assay: FACS competition with HRG1-β1-EGF, CHO-HER3
hHER3 full length [9] = biological target: T3, hHER3 full length; assay: cell-based or functional assay; remark: listed apart in the source
[10] = biological target: T4, human HER3-Fc (R&D Systems, 348-RB); assay: HRG competition alphascreen
[11] = biological target: T2, Chimeric chicken Her3-human domain 1 …; assay: FACS, HEK293 with chimeric HER3
[12] = biological target: T4, human HER3-Fc (R&D Systems, 348-RB); assay: HRG competition alphascreen; remark: listed apart in the source
[13] = biological target: T4, human HER3-Fc (R&D Systems, 348-RB); assay: HRG competition alphascreen; remark: listed apart in the source
[14] = biological target: T4, human HER3-Fc (R&D Systems, 348-RB); assay: SPR, HER3-Fc captured; heterogenous curve, main interaction (89%)

IC50 pHER3 blocking, HRG stimulated MCF7 (hHER3 full length [1]) [M]	IC50 [2] [nM]	binding result [3]	IC50 [4] [nM]	koff [5] [s⁻¹]	koff [6]	koff [7]	IC50 (hHER3 full length [8]) [nM]	IC50 pHER3, HRG1-β1 stimulated MCF7 (hHER3 full length [9]) [M]	% inhibition [10] [%]	IC50 [10] [nM]	binding result [11]	IC50 [12] [nM]	IC50 [13]	Kd [14] [nM]	kon [14] [M⁻¹ s⁻¹]	Binder
2.91e-08	4.4	binds	3.2	0.00061	0.00062 s⁻¹ and 0.00077 s⁻¹	0.00043 s⁻¹ and 0.00047 s⁻¹										18G11 (VHH, c-myc, His6-tagged form as expressed; also called HER3MS18G11; HER3MS018G11) VHH: EVQLVESGGGLVQPGGSLRLSCAASGTLFKINAMGWYRQAPGKRRELVALITSSDTTDYAESVEGRFTISRDNTWNAVYLQMNSLKPEDTAVYYCHSDHYSMGVPEKRVIMYGQGTQVTVSS
							4.26	6.25e-09	86.7	0.264	binds	0.18	0.27 nM and 0.69 nM			04C07 (VHH, also called HER3MS04C07; HER3MS004C07) VHH: EVQLVESGGGLVQAGGSLRLSCAASGFTFSSYPMSWVRQAPGKGPAWVSTVSPGGITTSYADSVKGRFTISRDNAKNTLYLQMNSLKPEDTAVYYCLRDLNNRGQGTQVTVSS
		binds									binds			48	8400	17C08 (VHH, also called 17C8) VHH: EVQLVESGGGLMQAGDSLRLSCAASGRAFSSYALGWFRRAPGKERECVAATDRLGDNTYFPDSVKGRFTISRDNAKNTLYLQMNNLKPEDTAVYYCAAGAVRYGVSTSPMNYNYWGQGTQVTVSS

— patent publication US20130136748A1 (Ablynx, published 2013)
